Measured values: paper PMC3636079, “Determinants at the N- and C-termini of Gα12 required for activation of Rho-mediated signaling” (Journal of Molecular Signaling, 2013)

How the values were obtained:
[1] = biological target: T1, GST fusion of amino acids 320-606 of LARG (GST-LARG-RH) (UniProt Q9NZN5 320-606); experiment: pull-down; GST fusion (or GST alone) immobilised on glutathione-sepharose; HEK293 detergent-soluble extract diluted to 0.05% polyoxyethylene-10-lauryl ether in 50 mM HEPES pH 7.5, 1 mM EDTA, 3 mM dithiothreitol, 10 mM MgSO4; about 2 h at 4°C; three washes; immunoblot with anti-Gα12 or anti-myc; band intensities given as pulldown:load ratio; conditions: one partner purified
T1 construct: leukemia-associated RhoGEF (LARG), RGS-homology (RH) domain, amino acids 320-606; plasmid provided by Tohru Kozasa
T1 sequence (looked up): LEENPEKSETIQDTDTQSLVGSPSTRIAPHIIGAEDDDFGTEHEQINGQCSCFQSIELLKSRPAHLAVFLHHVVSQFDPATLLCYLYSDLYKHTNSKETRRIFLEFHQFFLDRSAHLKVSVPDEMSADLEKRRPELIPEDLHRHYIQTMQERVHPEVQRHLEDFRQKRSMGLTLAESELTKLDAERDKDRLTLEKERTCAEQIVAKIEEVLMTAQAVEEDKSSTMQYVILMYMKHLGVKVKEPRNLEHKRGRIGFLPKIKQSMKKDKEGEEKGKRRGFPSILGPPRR

[2] = biological target: T2, GST fusion of amino acids 1-252 of p115RhoGEF (GST-p115-RH) (UniProt Q92888 1-252); experiment: as above; conditions: one partner purified
T2 construct: p115RhoGEF, N-terminal 252 amino acids holding the RH domain; subcloned by PCR from a plasmid with an N-terminal myc tag on p115RhoGEF 1-252; also called RGS
T2 sequence (looked up): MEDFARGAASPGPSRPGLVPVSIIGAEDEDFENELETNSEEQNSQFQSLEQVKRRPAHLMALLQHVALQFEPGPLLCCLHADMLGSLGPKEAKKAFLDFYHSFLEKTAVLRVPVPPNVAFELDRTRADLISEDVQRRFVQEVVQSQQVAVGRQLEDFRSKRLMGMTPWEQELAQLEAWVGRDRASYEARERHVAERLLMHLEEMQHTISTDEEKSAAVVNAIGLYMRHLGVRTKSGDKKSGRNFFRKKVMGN

B1: myc-Gα12^QL Glu^31/33Arg (natural protein, UniProt P27600 1-379, looked up)
chain: MSGVVRTLSRCLLPAEAGARERRAGAARDARRRARRRSRDIDALLARERRAVRRLVKILLLGAGESGKSTFLKQMRIIHGREFDQKALLEFRDTIFDNILKGSRVLVDARDKLGIPWQHSENEKHGMFLMAFENKAGLPVEPATFQLYVPALSALWRDSGIREAFSRRSEFQLGESVKYFLDNLDRIGQLNYFPSKQDILLARKATKGIVEHDFVIKKIPFKMVDVGGLRSQRQKWFQCFDGITSILFMVSSSEYDQVLMEDRRTNRLVESMNIFETIVNNKLFFNVSIILFLNKMDLLVEKVKSVSIKKHFPDFKGDPHRLEDVQRYLVQCFDRKRRNRSKPLFHHFTTAIDTENIRFVFHAVKDTILQENLKDIMLQ
notes: Gα12 with Q229L and Glu31 and Glu33 changed to Arg; also called double charge substitution mutant; source: HEK293, transfected, in detergent-soluble extract
pulldown:load ratio, percent of myc-Gα12^QL [1]: ~18% | pulldown:load ratio, percent of myc-Gα12^QL [2]: ~86%
